# Residue numbers refer to the chain shown, from its start.
# B1: 401 (protein)
# chain: LDNGLARTPTMGWLHWERFMCNLDCQEEPDSCISEKLFMEMAERMVSEGWKDAGYEYLCIDDCWMAPQRDSEGRLQADPQRFPHGIRQLANYVHSKGLKLGIYADVGNKTCAGFPGSFGYYDIDAQTFADWGVDLLKFDGCYCDSLENLADGYKHMSLALNRSGRSIVYSCEWPLYMWPFQKPNYTEIRQYCNHWRNFADIDDSWKSIKSILDWTSRNQERIVDVAGPGGWNDPDMLVIGNFGLSWDQQVTQMALWAIMAAPLFMSNDLRHISPQAKALLQDKDVIAINQDPLGKQGYQLRKGDNFEVWERPLSGDAWAVAIINRQEIGGPRSYTIPVASLGKGVACNPACFITQLLPVKRQLGFYNWTSRLKSHINPTGTVLLQLENTMQMSLKDLL
# modifications: Synthetic Polypeptide sequence of Variant No. 401 of mature Human GLA
# B2: 414 (protein)
# chain: B1 chain with L158Q, S163T
# modifications: Synthetic Polypeptide sequence of Variant No. 414 of mature Human GLA
# B3: 362 (protein)
# chain: B1 chain with R44C, S163T
# modifications: Synthetic Polypeptide sequence of Variant No. 362 of mature Human GLA
# B4: 409 (protein)
# chain: B1 chain with S163T, R165H
# modifications: Synthetic Polypeptide sequence of Variant No. 409 of mature Human GLA
# B5: 405 (protein)
# chain: B1 chain with L158E, S163T
# modifications: Synthetic Polypeptide sequence of Variant No. 405 of mature Human GLA
# B6: 408 (protein)
# chain: B1 chain with S163T, S166R
# modifications: Synthetic Polypeptide sequence of Variant No. 408 of mature Human GLA
# B7: 402 (protein)
# chain: B1 chain with S163T, S166P, K206A
# modifications: Synthetic Polypeptide sequence of Variant No. 402
# B8: 410 (protein)
# chain: B1 chain with R162H, S163T
# modifications: Synthetic Polypeptide sequence of Variant No. 410 of mature Human GLA
# B9: 412 (protein)
# chain: B1 chain with S163T, S166H
# modifications: Synthetic Polypeptide sequence of Variant No. 412 of mature Human GLA
# B10: 411 (protein)
# chain: B1 chain with S163T, S166A
# modifications: Synthetic Polypeptide sequence of Variant No. 411 of mature Human GLA
# B11: 403 (protein)
# chain: B1 chain with S163T, S166G
# modifications: Synthetic Polypeptide sequence of Variant No. 403 of mature Human GLA
# B12: 415 (protein)
# chain: B1 chain with S163T, S166D
# modifications: Synthetic Polypeptide sequence of Variant No. 415 of mature Human GLA
# B13: 404 (protein)
# chain: B1 chain with S163T, S166F
# modifications: Synthetic Polypeptide sequence of Variant No. 404 of mature Human GLA
# B14: 407 (protein)
# chain: B1 chain with L158H, S163T
# modifications: Synthetic Polypeptide sequence of Variant No. 407 of mature Human GLA
# B15: 406 (protein)
# chain: B1 chain with R162K, S163T
# modifications: Synthetic Polypeptide sequence of Variant No. 406 of mature Human GLA
# How the values were obtained:
# Assay type in all cases: biochemical
# [1] = HTP-analysis of yeast culture supernatants, no challenge (MUGal hydrolysis); conditions: activity of the variant/activity of Rd4BB (SEQ ID NO: 15)
# In short: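 Activity read as 4-methylumbelliferyl α-D-galactopyranoside hydrolysis: fluorescence (355/448 nm) after sodium carbonate stop, following 30-180 min at 37° C with 2 mM MUGal stock at pH 4.6–4.8. Enzyme source is unchallenged culture supernatant of INVSc1 yeast expressing GLA variants, grown 66-84 h at 30° C.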
# [2] = HTP-analysis of supernatants pretreated with acid (MUGal hydrolysis); conditions: activity of the variant/activity of Rd4BB (SEQ ID NO: 15); challenge at pH 3.7
# In short: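 GLA variants were secreted from INVSc1 yeast grown 66-84 h at 30° C. in SD-Ura with 2% glucose; supernatants were mixed with McIlvaine buffer pH 3.3-4.3 and held at 37° C. for 1-3 h. Residual activity on MUGal at pH 4.8 was then measured by fluorescence.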
# [3] = HTP-analysis of supernatants pretreated with base (MUGal hydrolysis); conditions: activity of the variant/activity of Rd4BB (SEQ ID NO: 15); challenge at pH 9.65
# In short: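 Fluorescence of released 4-MU (Ex 355 nm, Em 448 nm) after carbonate quench reports MUGal hydrolysis by GLA variants secreted from INVSc1 yeast. Before the acidic (pH 4.3-4.8) 30-180 min reaction at 37° C, supernatants had been pre-incubated at pH 7.0-9.7 for 1-18 h at 37° C.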
Molecule,Relative Activity of GLA Variants After No Challenge (NC) [1],Relative Activity of GLA Variants After Challenge at pH 3.7 [2],Relative Activity of GLA Variants After Challenge at pH 9.65 [3]
B1,+ (0.5 to 1.5 relative activity over Rd4BB (SEQ ID NO: 15)),+ (0.5 to 1.5 relative activity over Rd4BB (SEQ ID NO: 15)),− (<0.5 relative activity over Rd4BB (SEQ ID NO: 15))
B2,+ (0.5 to 1.5 relative activity over Rd4BB (SEQ ID NO: 15)),+ (0.5 to 1.5 relative activity over Rd4BB (SEQ ID NO: 15)),+ (0.5 to 1.5 relative activity over Rd4BB (SEQ ID NO: 15))
B3,+ (0.5 to 1.5 relative activity over Rd4BB (SEQ ID NO: 15)),+ (0.5 to 1.5 relative activity over Rd4BB (SEQ ID NO: 15)),+ (0.5 to 1.5 relative activity over Rd4BB (SEQ ID NO: 15))
B4,+ (0.5 to 1.5 relative activity over Rd4BB (SEQ ID NO: 15)),+ (0.5 to 1.5 relative activity over Rd4BB (SEQ ID NO: 15)),− (<0.5 relative activity over Rd4BB (SEQ ID NO: 15))
B5,+ (0.5 to 1.5 relative activity over Rd4BB (SEQ ID NO: 15)),++ (>1.5 to 2.5 relative activity over Rd4BB (SEQ ID NO: 15)),+ (0.5 to 1.5 relative activity over Rd4BB (SEQ ID NO: 15))
B6,+ (0.5 to 1.5 relative activity over Rd4BB (SEQ ID NO: 15)),+ (0.5 to 1.5 relative activity over Rd4BB (SEQ ID NO: 15)),+ (0.5 to 1.5 relative activity over Rd4BB (SEQ ID NO: 15))
B7,+ (0.5 to 1.5 relative activity over Rd4BB (SEQ ID NO: 15)),++ (>1.5 to 2.5 relative activity over Rd4BB (SEQ ID NO: 15)),+ (0.5 to 1.5 relative activity over Rd4BB (SEQ ID NO: 15))
B8,+ (0.5 to 1.5 relative activity over Rd4BB (SEQ ID NO: 15)),+ (0.5 to 1.5 relative activity over Rd4BB (SEQ ID NO: 15)),− (<0.5 relative activity over Rd4BB (SEQ ID NO: 15))
B9,+ (0.5 to 1.5 relative activity over Rd4BB (SEQ ID NO: 15)),++ (>1.5 to 2.5 relative activity over Rd4BB (SEQ ID NO: 15)),+ (0.5 to 1.5 relative activity over Rd4BB (SEQ ID NO: 15))
B10,+ (0.5 to 1.5 relative activity over Rd4BB (SEQ ID NO: 15)),+ (0.5 to 1.5 relative activity over Rd4BB (SEQ ID NO: 15)),+ (0.5 to 1.5 relative activity over Rd4BB (SEQ ID NO: 15))
B11,+ (0.5 to 1.5 relative activity over Rd4BB (SEQ ID NO: 15)),+ (0.5 to 1.5 relative activity over Rd4BB (SEQ ID NO: 15)),+ (0.5 to 1.5 relative activity over Rd4BB (SEQ ID NO: 15))
B12,+ (0.5 to 1.5 relative activity over Rd4BB (SEQ ID NO: 15)),+ (0.5 to 1.5 relative activity over Rd4BB (SEQ ID NO: 15)),+ (0.5 to 1.5 relative activity over Rd4BB (SEQ ID NO: 15))
B13,+ (0.5 to 1.5 relative activity over Rd4BB (SEQ ID NO: 15)),+ (0.5 to 1.5 relative activity over Rd4BB (SEQ ID NO: 15)),− (<0.5 relative activity over Rd4BB (SEQ ID NO: 15))
B14,+ (0.5 to 1.5 relative activity over Rd4BB (SEQ ID NO: 15)),+ (0.5 to 1.5 relative activity over Rd4BB (SEQ ID NO: 15)),− (<0.5 relative activity over Rd4BB (SEQ ID NO: 15))
B15,+ (0.5 to 1.5 relative activity over Rd4BB (SEQ ID NO: 15)),+ (0.5 to 1.5 relative activity over Rd4BB (SEQ ID NO: 15)),+ (0.5 to 1.5 relative activity over Rd4BB (SEQ ID NO: 15))

# — patent US11278600B2, “Human alpha-galactosidase variants” (Codexis, Inc., priority 2014, dated 2022)
